Source: the RNAGym collection of RNA variant scans (doi:10.1073/pnas.2313332121)
Fewer inactive variants are shown than the library holds.

B1: TPR 5TU (parent)
chain: GGAUCUUCUCGAUCUAACAAAAAAGACAAAUCUGCCACAAAGCUUGAGAGCAUCUUCGGAUGCAGAGGCGGCAGCCUUCGGUGGCGCGAUAGCGCCAACGUUCUCAACUAUGACACGCAAAACGCGUGCUCCGUUGAAUGGAGUUUAUCAUG

Variants of: B1
Experiment: polymerase ribozyme fitness, log enrichment relative to wild type (log ratio); higher = more active; in vitro selection for triplet polymerase activity
Outline: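 Mutant libraries of both subunits of a heterodimeric triplet polymerase ribozyme were PCR-built, transcribed, and selected once in triplicate, with frozen incubation at −7 °C and capture of gel-excised extended constructs on streptavidin beads before RT-PCR. Illumina sequencing of input and output libraries was filtered to genotypes with ≥10 input reads and ≥1 read per output. Fitness is the logarithm of genotype enrichment over wild-type enrichment, using inverse-variance-weighted replicate averages. The logarithm is base 2.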

Variant	polymerase ribozyme fitness (log ratio)
GGAUCUUCUCGAUCUAACAAAAAAGACAAAUCUGCCACAAAGCUUGAGAGCAUCUUCGGAUGCAGAGGCGGCAGCCUUCGGUGGUGCGAUAGCGGCAACGUUCUCAACUAUGACACGCUAAACGCGUGCUCCGUUGAAUGGAGUUUAUCAUG [C85U C95G A119U]	-1.89
GGAUCUUCUCGAUCUAACAAAAAAGACAAAUCUGCCACAAAGCUUGAGAGCAUCUUCGGAUGCAGAGGCGGCAGCCUUCGGUGGUGCGAUAGCGCCAACGUGCUCAACUAUGACACGCAAAACGCGUGCUCCGUUGAAUGGAGUUUAUCAUG [C85U U102G]	-3.32
GGAUCUUCUCGAUCUAACAAAAAAGACAAAUCUGCCACAAAGCUUGAGAGCAUCUUCGGAUGCAGAGGCGGCAGCCUUCGGUGGUGCGAUAGCUCCUACGUUCUCAACUAUGACACGCAAAACGCGUGCUCCGUUGAAUGGAGUUUAUCAUG [C85U G94U A97U]	-0.116
GGAUCUUCUCGAUCUAACAAAAAAGACAAAUCUGCCACAAAGCUUGAGAGCAUCUUCGGAUGCAGAGGCGGCAGCCUUCGGUGGUGCGAUAGCGCCAACGUUCUCAACUAUGACACGCAAAACGCGUGCUCCGUUCAAUGGAGUUUAUCAUG [C85U G136C]	-3.29
GGAUCUUCUCGAUCUAACAAAAAAGACAAAUCUGCCACAAAGCUUGAGAGCAUCUUCGGAUGCAGAGGCGGCAGCCUUCGGUGGUGCGAUAGCGCCAACGUUCUCAACUAUGACACGCAAAACGCAUGCUCCGUUGAAUGGGGUUUAUCAUG [C85U G126A A142G]	-0.307
GGAUCUUCUCGAUCUAACAAAAAAGACAAAUCUGCCACAAAGCUUGAGAGCAUCUUCGGAUGCAGAGGCGGCAGCCUUCGGUGGUGCGAUAGUGCCAACGUUCUCAACUAUGACACGCAAAACGCGUGCUCCGGUGAAUGGAGUUUAUCAUG [C85U C93U U134G]	-4.16
GGAUCUUCUCGAUCUAACAAAAAAGACAAAUCUGCCACAAAGCUUGAGAGCAUCUUCGGAUGCAGAGGCGGCAGCCUUCGGUGGUGCGAUAGCGCCAACGUUCUCAACUAUGACACGCAAAACGCGUGCUCCGUUGAAUGGAGUUUAUCCUG [C85U A150C]	-2.26
GGAUCUUCUCGAUCUAACAAAAAAGACAAAUCUGCCACAAAGCUUGAGAGCAUCUUCGGAUGCAGAGGCGGCAGCCUUCGGUGGUGCGAUAGCGCCAACGUUCUCAACUAUGACACGCAAAACGCGUGCUCCGUUGAAUGGAGUUUAUCGUG [C85U A150G]	-1.76
GGAUCUUCUCGAUCUAACAAAAAAGACAAAUCUGCCACAAAGCUUGAGAGCAUCUUCGGAUGCAGAGGCGGCAGCCUUCGGUGGUGCGAUAGCGCCAACGUUGUCAACUAUGACACGCAAAACGCGUGCUCCGUUGAAUGGAGUUUAUCAUG [C85U C103G]	-3.48
GGAUCUUCUCGAUCUAACAAAAAAGACAAAUCUGCCACAAAGCUUGAGAGCAUCUUCGGAUGCAGAGGCGGCAGCCUUCGGUGGUGCGAUAGCGCCAACGUUCUCAACUAUGACACGCAAAACGCGUGCUCCGUUGAAUGGAGUUUGUCAUG [C85U A147G]	-1.25
GGAUCUUCUCGAUCUAACAAAAAAGACAAAUCUGCCACAAAGCUUGAGAGCAUCUUCGGAUGCAGAGGCGGCAGCCUUCGGUGGUGCGAUAGCGCCAACGUUCUCAACUAUGACACGCAAAACGCGUGCUUCGUUGAAUGGAUUUUAUCAUG [C85U C131U G143U]	-2.54
GGAUCUUCUCGAUCUAACAAAAAAGACAAAUCUGCCACAAAGCUUGAGAGCAUCUUCGGAUGCAGAGGCGGCAGCCUUCGGUGGUGCGAUAGCGCCAAGGUUCUCAACUAUGACACGCAAAACGCGUGCUCCGUUGAAUGGAGUUUAUCAUG [C85U C99G]	-1.07
GGAUCUUCUCGAUCUAACAAAAAAGACAAAUCUGCCACAAAGCUUGAGAGCAUCUUCGGAUGCAGAGGCGGCAGCCUUCGGUGGUGCGAUAGCGCCAAUGUUCUCAACUAUGACACGCAAAACGCGUGCUCCGUUGAAUGGAGUUUAUCAUG [C85U C99U]	-2.35
GGAUCUUCUCGAUCUAACAAAAAAGACAAAUCUGCCACAAAGCUUGAGAGCAUCUUCGGAUGCAGAGGCGGCAGCCUUCGGUGGUGCGAUAUCGCCAACGUUCUCAACUAUGACACGCAAAACGCGUGCUCCGUUGAAGGGAGUUUAUCAUG [C85U G92U U139G]	-1.29
GGAUCUUCUCGAUCUAACAAAAAAGACAAAUCUGCCACAAAGCUUGAGAGCAUCUUCGGAUGCAGAGGCGGCAGCCUUCGGUGGUGCGAUAGCGCCAACGUUCUCAACUAUGACACGCAAAACGCGUGCUCCGUUGAAUGGAGUUUAUAAUG [C85U C149A]	≤ -4.2
GGAUCUUCUCGAUCUAACAAAAAAGACAAAUCUGCCACAAAGCUUGAGAGCAUCUUCGGAUGCAGAGGCGGCAGCCUUCGGUGGUGCGAUAGCGCCAACGUUCUCAACUAUGACACGCAAAACGCGCGCUCCGUUGUAUGGAGUUUAUCAUG [C85U U127C A137U]	≤ -4.2
GGAUCUUCUCGAUCUAACAAAAAAGACAAAUCUGCCACAAAGCUUGAGAGCAUCUUCGGAUGCAGAGGCGGCAGCCUUCGGUGGUGCGAUAGCGCCAACGUUCUCAACUAUGACACGCAAAACGCGUGCUCCGUUGAAUGGCGUUUAUCAUG [C85U A142C]	-1.12
GGAUCUUCUCGAUCUAACAAAAAAGACAAAUCUGCCACAAAGCUUGAGAGCAUCUUCGGAUGCAGAGGCGGCAGCCUUCGGUGGUGCGAUAGCGCGAACGUUCUCAACUAUGACACGCAAAACGCGUGCUCCGUCGAAUGGAGUUUAUCAUG [C85U C96G U135C]	-2.57
GGAUCUUCUCGAUCUAACAAAAAAGACAAAUCUGCCACAAAGCUUGAGAGCAUCUUCGGAUGCAGAGGCGGCAGCCUUCGGUGGUGCGAUAGCGCCAACGUUCUCAAUUAUGACACGCAAAACGCGUGCUCCGUUGAAUGGAGUUUAUCAUG [C85U C108U]	-3.1
